# Measurements reported in publication PMC3355305, “Localized Dimerization and Nucleoid Binding Drive Gradient Formation by the Bacterial Cell Division Inhibitor MipZ” (Molecular Cell, 2012).
# B1: MipZ: P loop ATPase and cell division inhibitor of Caulobacter crescentus; hexahistidine-tagged in vitro, YFP fusion in FRAP (protein)
# chain: MAETRVIVVGNEKGGAGKSTIAVHLVTALLYGGAKVAVIDLDLRQRTSARFFENRRAWLDNKKIELPEPLALNLSDNDVALAERPEEEQVAGFEAAFARAMAECDFILIDTPGGDSAITRMAHGRADLVVTPMNDSFVDFDMLGTVDPVTLELTKPSLYSLTVWEGRKQRALSGQRQAMDWVVLRNRLATTEARNRKRLEDRLNALAKRVGFRIGPGLRDRVIYRELFPFGLTIADLSPQVRPVPVSLQHLAARQELRALMHSLGLSAYSGETMLAAQ
# modifications: left off: His6, end not stated, state not stated
# notes: hexahistidine-tagged in vitro, YFP fusion in FRAP
# Tests used:
# ParB = target: ParB; set-up: method as in Thanbichler and Shapiro, 2006; conditions: apo-MipZ; ref Thanbichler and Shapiro, 2006; cited from earlier work
# [1] = system: MipZ or its mutant derivatives (immobilized, homotypic); assay: SPR analysis of MipZ self-association / dimer dissociation; format: binding, Caulobacter crescentus
# Protocol: Figure 2 Biochemical Analysis of MipZ Dimerization (A) ATPase cycle of MipZ. See the main text for details. (B and C) SPR analysis of MipZ self-association. […] After the binding phase, the chip was washed with buffer lacking protein and nucleotides to follow the dissociation reaction. The rate constants (koff) determined for the dissociation of the MipZ and MipZ-D42A complexes are 0.83 min^−1 and 0.067 min^−1, respectively. (D) Nucleotide-dependent dimerization of MipZ. MipZ-D42A was incubated with ADP (blue), ATP (orange) or ATPγS (red) and subjected to size exclusion chromatography. (E) ATPase activity of MipZ and its mutant derivatives. The graph gives the average turnover rate (kapp, average turnovers/min per molecule of MipZ) of the different MipZ derivatives (6 μM). Data represent the average of at least three independent experiments (±SD). Note that consistent with a critical role of the metal cofactor in dimerization and catalysis Mg^2+ was required for ATP turnover (Figure S2H). (F) Concentration dependence of the MipZ ATPase activity. The average turnover rate of MipZ (kapp) was determined at the indicated protein concentrations. […]
molecule,measurement,setting,value
B1,Kd,ParB,~2000 nM
same,dissociation rate constant (koff) of the dimeric complex,[1]; in the presence of 1 mM ATPγS,0.003 s⁻¹
same,dissociation rate constant (koff) of the dimeric complex,"[1]; in the presence of ATP, chip washed with buffer lacking protein and nucleotides",0.0138 s⁻¹
